Laboratory results: patent US12006519B2, “Polymerase mutants and use with 3′-OH unblocked reversible terminators” (Agilent Technologies, Inc., priority 2021, dated 2024)

Test system: Lightning Terminators
Assay: Sequencing-by-synthesis with Lightning Terminators (87 cycles)
Format: biochemical
Parameters: ARL (87 cycles) / Lead + Lag / Leading / Lagging: unit not given here
Procedure: This section generally describes how the present mutant polymerases were used for sequencing-by-synthesis, and how their performance in sequencing was measured. Sequencing was performed on a breadboard instrument, essentially as described in Hertzog D, et al., “A high-performance, low-cost approach to next-generation sequencing”, BioOptics World. 2011 Issue November/December 2011.
In this example, mutations were introduced into the DNA polymerase of SEQ ID NO: 12 (Therminator) in an attempt to improve its capability in sequencing with 3′-OH unblocked terminators. Such mutations to Thermococcus sp. 9° N DNA polymerase are disclosed in U.S. Pat. Nos. 9,273,352; 9,677,059; 9,765,309; U.S. Pat. App. Publication No. 20160032377. The following table summarizes sequencing metrics with Lightning Terminators.
As used in this example and those that follow, “Lead+Lag” refers to dephasing errors in Sequencing by Synthesis technology caused by either reading the next base signal (Lead) or reading the previous base signal (Lag) relative to current base signals. Such errors may arise because of imperfect incoporation of reversible terminators by the polymerase.
In this example, mutant polymerases were created by introducing certain mutations (D141A/E143A/A485L) which are present in Therminator. The three mutations were introduced at the equivalent positions in JDF3 (Thermococcus sp. JDF3) and Pfu (Pyrococcus furisosus) DNA polymerases. The new mutant polymerases were then evaluated for their performance in sequencing with Lightning Terminators, as described above.

[1] = Therminator mutants, same unit concentrations (0.08 U/ul in cycle 1 and 0.008 U/ul in cycles 2-n)
[2] = alternative polymerases (D141A/E143A), same protein concentrations (0.02 ug/uL in cycle 1 and 0.002 ug/uL in cycles 2-n)

B1: Therminator: DNA polymerase of SEQ ID NO:12, derivative of Thermococcus sp. 9° N-7 DNA polymerase (D141A/E143A/A485L), New England Biolabs (protein)
chain: MILDTDYITENGKPVIRVFKKENGEFKIEYDRTFEPYFYALLKDDSAIEDVKKVTAKRHGTVVKVKRAEKVQKKFLGRPIEVWKLYFNHPQDVPAIRDRIRAHPAVVDIYEYDIPFAKRYLIDKGLIPMEGDEELTMLAFAIATLYHEGEEFGTGPILMISYADGSEARVITWKKIDLPYVDVVSTEKEMIKRFLRVVREKDPDVLITYNGDNFDFAYLKKRCEELGIKFTLGRDGSEPKIQRMGDRFAVEVKGRIHFDLYPVIRRTINLPTYTLEAVYEAVFGKPKEKVYAEEIAQAWESGEGLERVARYSMEDAKVTYELGREFFPMEAQLSRLIGQSLWDVSRSSTGNLVEWFLLRKAYKRNELAPNKPDERELARRRGGYAGGYVKEPERGLWDNIVYLDFRSLYPSIIITHNVSPDTLNREGCKEYDVAPEVGHKFCKDFPGFIPSLLGDLLEERQKIKRKMKATVDPLEKKLLDYRQRLIKILANSFYGYYGYAKARWYCKECAESVTAWGREYIEMVIRELEEKFGFKVLYADTDGLHATIPGADAETVKKKAKEFLKYINPKLPGLLELEYEGFYVRGFFVTKKKYAVIDEEGKITTRGLEIVRRDWSEIAKETQARVLEAILKHGDVEEAVRIVKEVTEKLSKYEVPPEKLVIHEQITRDLRDYKATGPHVAVAKRLAARGVKIRPGTVISYIVLKGSGRIGDRAIPADEFDPTKHRYDAEYYIENQVLPAVERILKAFGYRKEDLRYQKTKQVGLGAWLKVKGKK
% reads >85 bp (Example 3): 49.6% | FracQ30 (Example 3): 0.58 | Lagging (Example 3): 0.61 | Leading (Example 3): 0.70 | ARL (87 cycles) (Example 3, Therminator 110 runs, Pfu10 12 runs): 76.0 | % reads >85 bp [1]: 35.4% | ARL (87 cycles) [1]: 72.3 | Lead + Lag [1]: 1.6 | % reads >85 [2]: 49.6% | ARL (87 cycles) [2]: 76.0 | Lead + Lag [2]: 1.3

B2: I521L: Therminator with mutation I521L (9° N DNA pol numbering) (protein, UniProt Q56366 1-775, looked up, variant D141A E143A A485L I521L)
DNA polymerase: MILDTDYITENGKPVIRVFKKENGEFKIEYDRTFEPYFYALLKDDSAIEDVKKVTAKRHGTVVKVKRAEKVQKKFLGRPIEVWKLYFNHPQDVPAIRDRIRAHPAVVDIYEYDIPFAKRYLIDKGLIPMEGDEELTMLAFAIATLYHEGEEFGTGPILMISYADGSEARVITWKKIDLPYVDVVSTEKEMIKRFLRVVREKDPDVLITYNGDNFDFAYLKKRCEELGIKFTLGRDGSEPKIQRMGDRFAVEVKGRIHFDLYPVIRRTINLPTYTLEAVYEAVFGKPKEKVYAEEIAQAWESGEGLERVARYSMEDAKVTYELGREFFPMEAQLSRLIGQSLWDVSRSSTGNLVEWFLLRKAYKRNELAPNKPDERELARRRGGYAGGYVKEPERGLWDNIVYLDFRSLYPSIIITHNVSPDTLNREGCKEYDVAPEVGHKFCKDFPGFIPSLLGDLLEERQKIKRKMKATVDPLEKKLLDYRQRLIKILANSFYGYYGYAKARWYCKECAESVTAWGREYLEMVIRELEEKFGFKVLYADTDGLHATIPGADAETVKKKAKEFLKYINPKLPGLLELEYEGFYVRGFFVTKKKYAVIDEEGKITTRGLEIVRRDWSEIAKETQARVLEAILKHGDVEEAVRIVKEVTEKLSKYEVPPEKLVIHEQITRDLRDYKATGPHVAVAKRLAARGVKIRPGTVISYIVLKGSGRIGDRAIPADEFDPTKHRYDAEYYIENQVLPAVERILKAFGYRKEDLRYQKTKQVGLGAWLKVKGKK
modifications: Therminator
% reads >85 bp [1]: 2.8% | ARL (87 cycles) [1]: 53.9 | Lead + Lag [1]: 2.8

B3: R743A: Therminator with mutation R743A (9° N DNA pol numbering) (protein, UniProt Q56366 1-775, looked up, variant D141A E143A A485L R743A)
DNA polymerase: MILDTDYITENGKPVIRVFKKENGEFKIEYDRTFEPYFYALLKDDSAIEDVKKVTAKRHGTVVKVKRAEKVQKKFLGRPIEVWKLYFNHPQDVPAIRDRIRAHPAVVDIYEYDIPFAKRYLIDKGLIPMEGDEELTMLAFAIATLYHEGEEFGTGPILMISYADGSEARVITWKKIDLPYVDVVSTEKEMIKRFLRVVREKDPDVLITYNGDNFDFAYLKKRCEELGIKFTLGRDGSEPKIQRMGDRFAVEVKGRIHFDLYPVIRRTINLPTYTLEAVYEAVFGKPKEKVYAEEIAQAWESGEGLERVARYSMEDAKVTYELGREFFPMEAQLSRLIGQSLWDVSRSSTGNLVEWFLLRKAYKRNELAPNKPDERELARRRGGYAGGYVKEPERGLWDNIVYLDFRSLYPSIIITHNVSPDTLNREGCKEYDVAPEVGHKFCKDFPGFIPSLLGDLLEERQKIKRKMKATVDPLEKKLLDYRQRLIKILANSFYGYYGYAKARWYCKECAESVTAWGREYIEMVIRELEEKFGFKVLYADTDGLHATIPGADAETVKKKAKEFLKYINPKLPGLLELEYEGFYVRGFFVTKKKYAVIDEEGKITTRGLEIVRRDWSEIAKETQARVLEAILKHGDVEEAVRIVKEVTEKLSKYEVPPEKLVIHEQITRDLRDYKATGPHVAVAKRLAARGVKIRPGTVISYIVLKGSGRIGDRAIPADEFDPTKHRYDAEYYIENQVLPAVEAILKAFGYRKEDLRYQKTKQVGLGAWLKVKGKK
% reads >85 bp [1]: 8.6% | ARL (87 cycles) [1]: 55.0 | Lead + Lag [1]: 2.4

B4: T514S: Therminator with mutation T514S (9° N DNA pol numbering) (protein, UniProt Q56366 1-775, looked up, variant D141A E143A A485L T514S)
DNA polymerase: MILDTDYITENGKPVIRVFKKENGEFKIEYDRTFEPYFYALLKDDSAIEDVKKVTAKRHGTVVKVKRAEKVQKKFLGRPIEVWKLYFNHPQDVPAIRDRIRAHPAVVDIYEYDIPFAKRYLIDKGLIPMEGDEELTMLAFAIATLYHEGEEFGTGPILMISYADGSEARVITWKKIDLPYVDVVSTEKEMIKRFLRVVREKDPDVLITYNGDNFDFAYLKKRCEELGIKFTLGRDGSEPKIQRMGDRFAVEVKGRIHFDLYPVIRRTINLPTYTLEAVYEAVFGKPKEKVYAEEIAQAWESGEGLERVARYSMEDAKVTYELGREFFPMEAQLSRLIGQSLWDVSRSSTGNLVEWFLLRKAYKRNELAPNKPDERELARRRGGYAGGYVKEPERGLWDNIVYLDFRSLYPSIIITHNVSPDTLNREGCKEYDVAPEVGHKFCKDFPGFIPSLLGDLLEERQKIKRKMKATVDPLEKKLLDYRQRLIKILANSFYGYYGYAKARWYCKECAESVSAWGREYIEMVIRELEEKFGFKVLYADTDGLHATIPGADAETVKKKAKEFLKYINPKLPGLLELEYEGFYVRGFFVTKKKYAVIDEEGKITTRGLEIVRRDWSEIAKETQARVLEAILKHGDVEEAVRIVKEVTEKLSKYEVPPEKLVIHEQITRDLRDYKATGPHVAVAKRLAARGVKIRPGTVISYIVLKGSGRIGDRAIPADEFDPTKHRYDAEYYIENQVLPAVERILKAFGYRKEDLRYQKTKQVGLGAWLKVKGKK
modifications: Therminator
% reads >85 bp [1]: 38.3% | ARL (87 cycles) [1]: 72.0 | Lead + Lag [1]: 1.1
